Here are results for 1 molecule from paper PMC5307367 (2017).

The target of this experiment is T1, recombinant His-tagged wild-type ZPR9 (UniProt Q969S3 1-477).
T1 chain: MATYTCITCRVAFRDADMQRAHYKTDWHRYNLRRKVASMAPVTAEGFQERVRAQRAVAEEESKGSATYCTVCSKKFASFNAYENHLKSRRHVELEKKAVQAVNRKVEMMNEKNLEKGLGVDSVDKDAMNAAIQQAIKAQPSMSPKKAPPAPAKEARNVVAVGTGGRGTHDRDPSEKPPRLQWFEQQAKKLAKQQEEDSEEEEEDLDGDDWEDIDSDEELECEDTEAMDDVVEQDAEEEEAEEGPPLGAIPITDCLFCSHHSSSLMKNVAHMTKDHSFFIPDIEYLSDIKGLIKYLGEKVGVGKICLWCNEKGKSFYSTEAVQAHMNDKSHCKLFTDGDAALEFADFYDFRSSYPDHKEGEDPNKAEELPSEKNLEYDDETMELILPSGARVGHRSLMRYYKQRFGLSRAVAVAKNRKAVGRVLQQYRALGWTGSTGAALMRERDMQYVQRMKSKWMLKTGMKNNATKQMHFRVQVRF
The experiment can be described thus: ITC. (ITC needs no label: the signal is the heat of the interaction.)

B1: recombinant His-tagged wild-type MPK38 (enzyme)
chain: MKDYDELLKYYELYETIGTGGFAKVKLACHVLTGEMVAIKIMDKNALGSDLPRVKTEIDALKSLRHQHICQLYHVLETKNKIFMVLEYCPGGELFDYIISQDRLSEEETRVVFRQILSAVAYVHSQGYAHRDLKPENLLFDENHKLKLIDFGLCAKPKGNKDYHLQTCCGSLAYAAPELIQGKSYLGSEADVWSMGILLYVLMCGFLPFDDDNVMALYKKIMRGKYEVPKWLSPSSILLLQQMLQVDPKKRISMRNLLNHPWVMQDYSCPVEWQSKTPLTHLDEDCVTELSVHHRSSRQTMEDLISSWQYDHLTATYLLLLAKKARGKPARLQLLSFSCGTASTTPKSKNLSLEDMSTSDDNCVAGLIDYELCEDKLLAPKTPQVTKHLAESNHAASKSPAPGVRRAVANKLMDKENVCTPKSSVKNEEQFVFSEPKIPVSKNQYKREIPASPTRFPTPAKARAQCLREAPVRTPGNSAGADTLTTGVISPERRCRSMDVDLNQAHMEDTPKKKGTNVFGSLERGLDKVLTALTRNKKKGSARDGPRKRKLHYNVTTTRLVNPDQLLSEIMAILPKKNVDFVQKGYTLKCQTQSDFGKVTMQFELEVCQLQRPDVVGIRRQRLKGDAWVYKRLVEDILSGCKM
As to B1, the Ka is 39100 M⁻¹.
